Source: the domain aggregation screens of Martell et al. (2025)

Assay: soluble fraction after stress (log2 fold change); higher = more stays soluble; pooled small domains, quantitative proteomics
Conditions: stress: pH 4
In short: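 How much of each domain stays soluble after acid stress, expressed as a fold change, is used to gauge aggregation propensity. Pooled custom libraries of small domains underwent pH 4 stress before high-throughput quantitative proteomics. A higher log2 value means more of the domain stayed soluble.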

Sequence | soluble fraction (log2)
HMDLPRQSQYQALVVSYARRAGIDEAEEDLLAAFEVWRMRHNHDLAGGRTARDFILAYLPQYQRHKE | -0.59
HMLDQAVPVFETPKYAVSYIQNRLVEMKAASPEEAASRFYESISESERRGLFEALLIKEAEES | -0.821
HMDGYTVYTNWGSDTNVARSDQQIQSQIPQLSGATIVGVWTKPIATGGTSYKIRYRTNSGAFTEIDVDQ | -0.0816
HMGSLRSALDGIPGIGEQYQKRLLAQFGSVKAMRSASVEDFEAVRGIGRAKAQALYDALHAG | 0.13
HMNTTTTKVVSVSSLNMRSGPSTSYNIIEVLTKDTQVEVISVEDGWAKIKYNSKTGYVSNQYLSDKK | -0.0101
HMGSLQPLLLAAIDALQTHIRSGLPFRVEERLAELDQFRTELQNGSVPPQRGVNRLWAFYEDEFRL | -0.386
HMDPTVSGQTGSVVREIRPGVPGEVELSVPLYGIRRWQAMADGILAEGTRVTVIQAEGVRLSVRPV | -0.251
HMKNFAPVWGEEGAEFGKEVDTGFRLRIVEKEKDVNDLFEVIQKHTIQSQWKPGSTGTESIYKRI | -1.35
HMSESLRDLVLSLIPEDGSTIGNRALITRLREDLPDLTDEDYHEVRDQLIAEGVLAKGRGQGGSVARANG | 0.0415
HMDLSPEQAELAAIRGELGIKIDDYALALNIPRDRLTSYLYGRANVPAEVLISARELRYASSA | -0.128
HMYVKKSSFVKKSLNNYEFKITDNTNDLLIFYKGMLPDLFREEQGIVVEGLIDKNNNIVASKV | -0.0152
HMIRSNLAEQAYAQLKALIHDFQLLPGDRFSENEMGTRLGVSRTPVREALFRLRNEGFLEVESKAGWYVK | -1.73
HMTRQKEAILALLTDSRGEALSASELLARLTRSGSSIGRTTVYRLLSQLVDDGVVRAWRDASRGITLYELS | -0.44
HMVLQHHTATKALSYHTSASASAAVKGSFARGDSVQVVQGGSQTADGAKWHKVKVGSSYYYAAAEHLTP | -0.616
HMETKKEIIEAINELEEKYRNAIYLTSIEKLSYEETSKILGQSLSNTKNLIHRGKQQLRKILIKK | -0.37
HMRTVLSDETYLRIREMLLTHDIAPGERINIDALARELDVSQTPVREALARLESEDLVTKEPLRGYTATK | -0.123
HMDNWYIAFNSFLSQNKLTAKNVSELTGLSKPTIDSYKQGKRKPTDENMQIIKDKLGFNISEILYN | -0.576
HMVTEKNALTIEIEDLTKRFGNQRESLLPILQEVQLKHGHISDFAQQEIARLLDIHPVEVYGVVTFFSFLS | -2.43
HMPVEHVWHIAENGQTSGPYSKARMGRMAQEGQLTRDTHVWTPGQDGWMRAGDVTELAQLFT | -0.0732
HMSNNLAYSQFLDRVKNKEIRKVEIRGQSIVGYTSNNETFKTYAPLNDPKMYDELLTNDVQVQVDPP | 0.0357
HMNILDPTVMKNILDKNHEEFIAIYESAPLGQKTIINSMVFDKRLNGENVDANILMYLQNKTNIDYINIEP | -1.47
HMRSVPNVAGLGMDGAAFQLGKAGFAIGTITPADDPKAVVGSIQRTEPAAGTVADRDTVVNLFQV | 0.22
HMAPRLTERERQVLQLIAEGLTSMQIGDRLHIAASTVDVHRRNLMRKLDLHNVADLTRYAITQGISP | 0.00348
HMNLYENLATHVKNAIRQGVYQPGDRLPSVRRLSEQHRVSQNTAVSAYRLLESHGWLEARPQSGFFARHP | 0.297
HMKMLEINDNDSVGLKNLKTQYNHNQKVIENFQLEINKVINDGELPDKYLLDGMEKYQKLNMQIMSTIEKQ | 0.221
HMIGGEDEILKVVLEVLEEKPEAIEQYKNGRTNIVDFLVGQVMKKTRGQANPATTREFMIREIEK | -0.999
HMLQIGDEEFIENIVKQVIDENQKAVDDYKKGKEKVMAFLIGQVMKKTKGKVNSEIVEKTIKKL | -0.565
HMSSPTAKATGSSVNIRKSASTGAAVLKRVEKGTVLEAVSISDGWVKVKYSGVTGYVSADYVKVSGL | 0.154

Sequence | soluble fraction (log2)
HMADYSGYLGKKGKVIAPLRPAGTALIDGERVDVVSFGDYIDKDSEIEVVKIEGSKLLVKKY | 0.128
HMNFRESVLAVFENSKQKYLDFDEIAKRLGLTRGFDRQALASMLNELTRNDEIVFTKRNKYTLPEN | -0.774
HMGYPGLGSIGSKPLGDLLFQSKLFVKTKREFAEFKMANNNIVWGRRTQYLVRNYPLSVMEVFL | -0.348
HMNLQGIISQKAIVTQTIEPYETGVAKLNGEEWTAMSKDETRIEAGKLVEVVAIEGVKLIVKEVS | -0.295
HMITDSSEIEAMVDALVKENPGQAEQYKDGNMKVAGWFIGQIMKVSKGKANPQLVGDLLKKKLG | ≥ 0.43
HMVNGEFIDRIKVILQENNATRKKDRLTKTRMYQLLQEEGYEGSYSAFTYQVRIIEEELGINNK | ≥ 0.43
HMKIDLTPQEEKIYSVLETELTLDEIIMKTSIKAGEALAILMDLELKKLVASVAGGKYRRKA | 0.157
HMARKFQKDTGYLNKKERTWLLDFFPSLKKYLYTGAYIRSIIVVESNVTYTDKELPSNYTFTYKFA | 0.176
HMATSLTEQEKLIFGLLKKQSPIELSSLKEQAGLSNKKWDKAIKGLSTQQLAKVTKTENGLFVHLLQ | 0.12
HMDEILHHPSYRAIYEYMLDHKHVKTKDIAALLNVKEPRARQLLKEMIDKHFIIALGSNRNREYELL | 0.348
HMRRTVIVTAAHAEIRERPDANAPLVFSAEQKVSLDYQETAPGGWVKVRHRDGQSGYVRTNQI | -0.159
HMNVNTHKTLILNSTFQPLSLATPQRALALLFSKKINVLKESDIKLRSVGQSVAIPKVAVLTYFVKA | 0.132
HMGLSIPLMGAKASDIEISTLNDEVQRKLKIIVKEQGHENLQRVVPLPSEAREIQAHFINGRLHLR | 0.214
HMSDTFENILQRLIKATGRKNASEMANALGLSPQSVYSAKTKGKIPPAWIFAAAERFNASADWIYFGY | -0.759
HMPFESEMKHWIHLFAHELNLKVSDKYTQKIIEIFGNNFSEIFNEMSKSSLVSSNEKDLLNALEKSGNIH | -0.862
HMGSIMIIVLKENAPQQAAEKLMKEIRAKGLQIDVSKGTRKTVLGLVGDTSVIDMEHVQGYDYVDKVLRV | -0.674
HMDLEMLEVEDTIKDLLSQHQKINAIKYYRNYMSEQLNVDMGLRQAKDTIDAIGRGATVDLSVGY | -0.783
HMPLITAIELDSISARSFQFNTQSGSTYFIEGSTDLKSWDVIAEVKATDSTTTYEDHRKIYHEAYFYRVRL | -1.55
HMNNLTEEAINHLVLEVKNVLLTDALFLGKATDSQLMLRIKETIDQRNGQYNIGMNDRERIARRVFARLR | ≥ 0.43
HMQIYSQEIYDAQKVLKELGLYTSDLDGLNGPGTKRALRNFQSKSGLNADGVLGPLTKSALDKGEESYITV | -0.0943
HMLPLPRFASLDSSEANLRAGPGKDYPILWVYQRKGLPVEIIQEFDTWRRIRDRDGTVGWVQQNLL | -0.568
HMSDSLVLTGVAYVDGKPVVTLFDKVKKESLVVTDQPNLKGWTLVEATQSSDIKRATAKVNIGGEPVSIRY | -0.162
HMKITIDSVERDETFRLIWGTGWKPKNKIQELAAIQAKKNGLGRMNEVAGLAAWRGIWQQVAEQVAQEVL | -0.843
HMFNISEKLKKYRNALGLTQTEVAEKIEITKPTYASYEKGKDISIGTLKKLADLFEVSFESFFSE | -0.336
HMKPVTNHTVKFYVDDVLWKTVTVKHGGNVRLADLPMSDGKTFVGWSESVVNVTKDLTVFALFS | -0.478
HMGDLKALMPGKVTQVLVSGGQKVKVGEPVLLMESMKMEQTIVATKDGDISEILVSEGDTVEVGKIMIKI | 0.0925
HMEDKFEYQGERKSLIYPTSFSELTEALGVRNMLQSIIDFATRDEDTSGYEEMKERQNEYIQEYL | 0.0125
